From patent US20240108766A1 (Bayer, published 2024)

Biological target: T1, human LRRC15 expressed on cells (human, UniProt Q8TF66 22-581)
T1 construct: whole, on cells; On HEK293 cells transfected with LRRC15/ZsGreen1 (Retrogenix), on HT29 cells transfected with human LRRC15, and endogenous on Saos-2; also called LRRC15/ZsGreen1 transfected HEK293 cells; HT29-LRRC15
T1 sequence (looked up): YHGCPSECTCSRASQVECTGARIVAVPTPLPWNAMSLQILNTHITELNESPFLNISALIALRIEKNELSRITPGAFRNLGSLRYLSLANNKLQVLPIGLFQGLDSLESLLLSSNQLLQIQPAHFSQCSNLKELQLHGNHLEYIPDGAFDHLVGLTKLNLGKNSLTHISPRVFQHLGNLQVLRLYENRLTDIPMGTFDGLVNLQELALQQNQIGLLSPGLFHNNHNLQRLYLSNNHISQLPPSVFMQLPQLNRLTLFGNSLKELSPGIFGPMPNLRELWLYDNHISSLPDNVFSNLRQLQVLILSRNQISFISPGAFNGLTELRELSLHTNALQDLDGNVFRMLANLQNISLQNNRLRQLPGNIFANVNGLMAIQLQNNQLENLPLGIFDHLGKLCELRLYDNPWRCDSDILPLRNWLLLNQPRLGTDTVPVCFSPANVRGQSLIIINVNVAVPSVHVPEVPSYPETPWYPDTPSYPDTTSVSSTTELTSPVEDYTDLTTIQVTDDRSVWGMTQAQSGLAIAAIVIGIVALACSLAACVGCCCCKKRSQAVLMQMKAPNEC
Experiment: flow cytometry, transfected HEK293

EC50: 0.42 µg/mL
B1: TPP-17421 (antibody, human IgG1, kappa, V domains shown)
VH: EVQLVQSGAEVKKPGASVKVSCKASGYKFSSYWIEWVKQAPGQGLEWIGEILPGSDWTNYNEKFKDRATFTSDTSINTAYMELSRLRSDDTAVYYCARDRGNYRAWFQYWGQGTLVTVSS
VL: DIQMTQSPSSLSASVGDRVTITCRASQSISSYLNWYQQKPGGAPKFLIYYASSLQSGVPSRFSGSGSGTDYTLTISSLQPEDFATYYCQQGLELPWTFGGGTKVEIKR
notes: also called 438H-M306-C11-hIgG1Kappa
